{"source": "patent US20030022315A1", "binders": {"B1": {"name": "deletion mutant of the Tn10-encoded class B TetR (Δ26-53) (protein)", "chain": "MSRLDKSKVINSALELLNEVGIEGLALAIEMLDRHHTHFCPLEGESWQDFLRNKAKSFRCALLSHRDGAKVHLGTRPTEKQYETLENQLAFLCQQGFSLENALYALSAVGHFTLGCVLEDQEHQVAKEERETPTTDSMPPLLRQAIELFDHQGAEPAFLFGLELIICGLEKQLKCESGS"}}, "key": {"[1]": {"molecular_target": "T1, full-length class C TetR (Escherichia coli) (UniProt P03039)", "T1 sequence": "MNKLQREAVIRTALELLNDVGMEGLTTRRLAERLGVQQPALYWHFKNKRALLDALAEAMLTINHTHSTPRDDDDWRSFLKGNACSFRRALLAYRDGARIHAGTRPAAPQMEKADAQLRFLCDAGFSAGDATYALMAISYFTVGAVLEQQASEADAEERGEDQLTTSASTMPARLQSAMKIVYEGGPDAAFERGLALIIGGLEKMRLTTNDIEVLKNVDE"}, "[2]": {"molecular_target": "full-length class B TetR (wild-type, Tn10-encoded) (Tn10-encoded (organism not stated))"}, "[3]": {"molecular_target": "full-length class D TetR (Escherichia coli) (UniProt P0ACT4)"}, "[4]": {"molecular_target": "T2, full-length class E TetR (Escherichia coli) (UniProt P21337)", "T2 sequence": "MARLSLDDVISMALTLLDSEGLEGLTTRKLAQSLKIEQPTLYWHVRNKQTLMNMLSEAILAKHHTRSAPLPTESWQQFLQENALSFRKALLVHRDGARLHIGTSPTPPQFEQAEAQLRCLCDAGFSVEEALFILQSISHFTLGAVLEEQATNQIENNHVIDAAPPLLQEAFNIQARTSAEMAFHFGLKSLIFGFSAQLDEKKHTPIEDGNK"}}, "data": [{"binder": "B1", "values": [{"measurement": "Factor of Transdominance (β-galactosidase activity with against without the deletion mutant)", "setting": "[1]", "value": 2, "unit": "fold"}, {"measurement": "Factor of Transdominance (β-galactosidase activity with against without the deletion mutant)", "setting": "[2]", "value": 22, "unit": "fold"}, {"measurement": "Factor of Transdominance (β-galactosidase activity with against without the deletion mutant)", "setting": "[3]", "value": 1.1, "unit": "fold"}, {"measurement": "Factor of Transdominance (β-galactosidase activity with against without the deletion mutant)", "setting": "[4]", "value": 1, "unit": "fold"}]}]}
